Measurements as given in PMC9814530, “Rapid de novo discovery of peptidomimetic affinity reagents for human angiotensin converting enzyme 2” (Communications Chemistry, 2022).
Where no end group is shown, it is not given here.

target: T1, human angiotensin converting enzyme 2 (ACE2), recombinant (human, UniProt Q9BYF1 18-740); assay: BLI; biotinylated peptide immobilised on streptavidin tips (loaded at 1.0-2.0 uM); protein in solution (ACE2 at 1000, 500, 250, 125 and 62.5 nM); 30 °C, 1000 rpm; 1 x PBS with 0.1% BSA and 0.02% Tween-20; 180 s association; global 1:1 fit; apparent KD; conditions: both partners purified
T1 construct: also called soluble ACE2; recombinant ACE2 protein; source: bought: Sino Biological (Catalog number 10108-H08H) for BLI
T1 sequence (Q9BYF1 18-740): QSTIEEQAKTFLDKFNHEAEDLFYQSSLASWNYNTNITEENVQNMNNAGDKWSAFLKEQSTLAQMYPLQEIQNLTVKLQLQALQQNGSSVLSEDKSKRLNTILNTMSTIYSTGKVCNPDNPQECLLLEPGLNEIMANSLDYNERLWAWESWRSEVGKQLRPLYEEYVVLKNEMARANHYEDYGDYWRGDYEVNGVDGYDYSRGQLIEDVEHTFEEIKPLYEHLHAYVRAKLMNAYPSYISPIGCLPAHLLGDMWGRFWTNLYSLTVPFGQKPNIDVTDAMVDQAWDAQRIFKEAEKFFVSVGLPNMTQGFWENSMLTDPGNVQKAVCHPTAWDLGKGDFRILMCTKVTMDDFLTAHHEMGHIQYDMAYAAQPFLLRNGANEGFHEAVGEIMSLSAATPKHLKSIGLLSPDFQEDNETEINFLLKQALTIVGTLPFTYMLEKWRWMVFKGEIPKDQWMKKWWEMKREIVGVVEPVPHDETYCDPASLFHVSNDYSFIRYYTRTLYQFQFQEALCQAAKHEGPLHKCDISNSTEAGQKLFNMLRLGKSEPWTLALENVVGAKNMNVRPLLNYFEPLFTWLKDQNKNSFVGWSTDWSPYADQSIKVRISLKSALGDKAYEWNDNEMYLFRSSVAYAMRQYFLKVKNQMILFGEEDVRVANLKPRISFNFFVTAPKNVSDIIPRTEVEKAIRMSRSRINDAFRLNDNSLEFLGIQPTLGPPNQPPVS

Binder | Kd
LQRGVFGFPYRVK-NH2 (also: biotinylated, position not given here) [ACE2-binding peptide ABP C7] | 26 nM
LQWHPAYWFMQVK-NH2 (also: biotinylated, position not given here) [ACE2-binding peptide ABP C8] | 36 nM
LHKQFGWHWFGFK-NH2 (also: biotinylated, position not given here) [ACE2-binding peptide ABP C3] | 35 nM
